The target of test [1] is T1, PIK3CA H1047L peptide on HLA-A*11:01 (human).
T1 peptide: ALHGGWTTK
The experiment in a line: multimer staining.

The target in test [2] is T2, PIK3CA H1047L peptide on HLA-A*03:01 (human).
T2 peptide: ALHGGWTTK
Put plainly: activation reporter or marker.

B1: TCR2 (TCR)
alpha TRAV12-3*01 TRAJ26*01 CDR3: CATNYGQNFVF
beta TRBV29-1*01 TRBJ2-7*01 CDR3: CSVSGTSNYEQYF
As to B1, the binding result in test [1] is listed as “recognises”; in test [2], “no recognition”.

B2: TCR5 (TCR)
alpha TRAV24*01 TRAJ44*01 CDR3: CASHAGTASKLTF
beta TRBV4-3*01 TRBJ2-1*01 CDR3: CASSQDVASSYNEQFF
Take B2: the results for the binding result in test [1] and in test [2] were “recognises” and “no recognition”, respectively.

B3: TCR1 (TCR)
alpha TRAV13-2*01 TRAJ49*01 CDR3: CAEGETGNQFYF
beta TRBV5-1*01 TRBJ2-1*01 CDR3: CASSSGTGGFEQFF
With B3, the binding result in test [1] is recorded as “recognises”; in test [2] it was “no recognition”.

B4: TCR4 (TCR)
alpha TRAV19*01 TRAJ49*01 CDR3: CALSEATGNQFYF
beta TRBV29-1*01 TRBJ2-7*01 CDR3: CSVQTLTSSDEQYF
Consider B4, for which the binding result in test [1] is recorded as “recognises”; in test [2], “no recognition”.

The values are drawn from publication PMC11150344 (2024).
